Measurements taken from US20190263932A1 (Eli Lilly, published 2019).

T1: Rabbit TrkA Extracellular Domain (33-414) (rabbit)
T1 construct: SPR analyte; not shown: C-terminal polyhistidine tag (unknown length)
T1 chain: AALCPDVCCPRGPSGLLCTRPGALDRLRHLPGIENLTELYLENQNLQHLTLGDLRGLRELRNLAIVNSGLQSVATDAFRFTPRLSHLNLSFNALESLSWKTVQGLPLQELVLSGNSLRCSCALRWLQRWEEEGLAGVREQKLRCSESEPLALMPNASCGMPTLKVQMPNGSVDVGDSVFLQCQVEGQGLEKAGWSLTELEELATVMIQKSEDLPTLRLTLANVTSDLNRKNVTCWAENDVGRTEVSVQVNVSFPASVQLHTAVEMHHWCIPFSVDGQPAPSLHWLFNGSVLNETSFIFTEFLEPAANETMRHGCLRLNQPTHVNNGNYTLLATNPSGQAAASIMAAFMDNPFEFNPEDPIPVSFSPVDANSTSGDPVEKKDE


Assays:
[1] = target: T2, recombinant human TrkA protein (human, UniProt P04629-2 34-407, limits assumed); assay: NGF-blocking ELISA on coated human TrkA, 100 nM btNGF; mAb 20 nM
[2] = target: T1, Rabbit TrkA Extracellular Domain …; assay: SPR, mAb captured on Protein A chip, 37 C
Experimental: (§1) The binding kinetics and affinity of exemplified antibodies to human, cynomolgus monkey, rat, mouse, and rabbit TrkA are determined as described below using a surface plasmon resonance assay on a BIACORE™ 8K instrument (GE Healthcare). Two different isoforms of human TrkA (isoform 1 and isoform 2) are evaluated along with human TrkB and human TrkC. […] All FC2 on all eight channels are set to capture approximately 89 response units (RU) of antibody at a flow rate of 10 μL/min. The antibody sample is prepared at 1 μg/mL by dilution into the running buffer. […] Before the analysis cycle, the chip is regenerated with 3 injections of glycine (pH ˜1.5) at 100 μL/min for a contact time of 15 seconds on FC1 and FC2 in order to clean the surface of the chip.

[3] = target: T3, Rat TrkA Extracellular Domain (33-411) (rat, UniProt P35739 33-417); assay: SPR, mAb captured on Protein A chip, 37 C
T3 construct: SPR analyte
Experimental: as §1

[4] = target: T4, Human TrkA Extracellular Domain Isoform 2 (33-408) (human, UniProt P04629 33-414); assay: SPR, mAb captured on Protein A chip, 37 C
T4 construct: SPR analyte; also called Human TrkA Isoform 2
Experimental: as §1

[5] = target: T5, rat TrkA receptor expressed in transfected HEK293 cells (rat, UniProt P35739 33-799); assay: cell-based or functional assay
[6] = target: T2, recombinant human TrkA protein; assay: NGF-blocking ELISA on coated human TrkA, 100 nM btNGF; mAb 0.04 nM
Experimental: (§2) Each row of a 96-well high-binding clear-bottom microtiter plate (Microlon, #655061) was coated overnight at 4° C. with 100 μL/well of recombinant human TrkA protein, diluted to 2 μg/mL in phosphate buffered saline, pH 7.2 (PBS). The next day, the coating solution was removed, and the plate was blocked with 150 μL of Casein-PBS (Thermo Scientific, #37528) for 1 hour at 25° C. with gentle shaking. The plate was then washed three times with PBS supplemented with 0.05% Tween20 (PBST). A two-fold dilution series of exemplified antibodies, along with IgG4 and IgG1 isotype control antibodies, was generated starting at 20 nM in Casein-PBS. 100 μL of the each dilution series sample was added to a well for 30 min at 37° C. with gentle shaking. The plate was then washed three times with PBST. […] The plate was then washed three times with PBST. A 1:3500 dilution of a 1 mg/mL stock solution of streptavidin-HRP (Thermo Scientific, #21130) in Casein-PBS was prepared and […] was added to each well for 20 min at 37° C. with gentle shaking. The plate was washed three times with PBST. […] The reaction was stopped by addition of 100 μL of 1M H₃PO₄ to each well. The absorbance at 450 nm (Abs450) was measured using a SpectraMax 340PC plate reader (Molecular Devices).

[7] = target: T5, rat TrkA receptor expressed in …; assay: cell-based or functional assay; remark: listed apart in the source
[8] = target: T2, recombinant human TrkA protein; assay: NGF-blocking ELISA on coated human TrkA, 100 nM btNGF; mAb 1.25 nM
Experimental: as §2

[9] = target: T2, recombinant human TrkA protein; assay: NGF-blocking ELISA on coated human TrkA, 100 nM btNGF
Experimental: as §2

T4 sequence (P04629 other isoform, or with tags, fused parts or gaps): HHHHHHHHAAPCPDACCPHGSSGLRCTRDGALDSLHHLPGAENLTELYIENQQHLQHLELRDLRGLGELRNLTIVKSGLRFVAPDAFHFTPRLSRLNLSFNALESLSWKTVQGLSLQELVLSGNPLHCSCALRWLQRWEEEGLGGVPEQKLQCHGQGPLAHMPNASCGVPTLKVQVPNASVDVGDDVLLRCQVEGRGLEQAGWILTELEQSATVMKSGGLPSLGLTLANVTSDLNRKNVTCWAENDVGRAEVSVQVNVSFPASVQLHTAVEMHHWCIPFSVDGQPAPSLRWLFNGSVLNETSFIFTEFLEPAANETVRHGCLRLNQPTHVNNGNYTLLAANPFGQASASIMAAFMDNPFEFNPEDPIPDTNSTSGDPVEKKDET
T5 sequence (P35739 33-799): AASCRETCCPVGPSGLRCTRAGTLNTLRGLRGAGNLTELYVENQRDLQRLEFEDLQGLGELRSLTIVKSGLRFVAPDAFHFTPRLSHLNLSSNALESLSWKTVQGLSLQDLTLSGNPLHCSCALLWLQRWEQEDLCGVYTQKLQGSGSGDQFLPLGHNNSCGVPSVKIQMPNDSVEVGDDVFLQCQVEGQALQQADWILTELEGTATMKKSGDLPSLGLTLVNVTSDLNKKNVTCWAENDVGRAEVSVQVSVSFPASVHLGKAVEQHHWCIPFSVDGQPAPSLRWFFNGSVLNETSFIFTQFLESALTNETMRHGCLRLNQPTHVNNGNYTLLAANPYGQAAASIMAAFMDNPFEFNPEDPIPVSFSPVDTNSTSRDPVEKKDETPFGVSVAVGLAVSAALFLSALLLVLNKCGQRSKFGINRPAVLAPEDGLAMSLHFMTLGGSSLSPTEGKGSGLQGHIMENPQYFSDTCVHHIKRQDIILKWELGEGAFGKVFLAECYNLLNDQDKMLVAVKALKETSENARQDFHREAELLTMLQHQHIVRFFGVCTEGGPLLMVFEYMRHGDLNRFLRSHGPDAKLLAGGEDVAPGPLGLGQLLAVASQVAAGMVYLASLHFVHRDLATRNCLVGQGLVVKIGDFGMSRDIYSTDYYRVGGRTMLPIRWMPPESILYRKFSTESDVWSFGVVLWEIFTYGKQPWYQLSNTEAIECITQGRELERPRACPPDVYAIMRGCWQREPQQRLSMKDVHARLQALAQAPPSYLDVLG
T2 sequence (P04629 other isoform, or with tags, fused parts or gaps limits assumed): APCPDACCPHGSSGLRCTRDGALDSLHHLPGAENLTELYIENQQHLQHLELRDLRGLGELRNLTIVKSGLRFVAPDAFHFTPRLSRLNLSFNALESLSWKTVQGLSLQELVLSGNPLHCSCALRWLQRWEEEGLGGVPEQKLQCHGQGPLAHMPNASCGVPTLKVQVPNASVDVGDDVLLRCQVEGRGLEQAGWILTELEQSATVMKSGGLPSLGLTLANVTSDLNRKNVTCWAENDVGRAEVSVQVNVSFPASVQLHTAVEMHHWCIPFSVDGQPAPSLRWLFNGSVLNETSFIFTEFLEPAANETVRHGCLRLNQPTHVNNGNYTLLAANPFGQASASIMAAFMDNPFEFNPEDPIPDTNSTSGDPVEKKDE
T3 sequence (P35739 other isoform, or with tags, fused parts or gaps): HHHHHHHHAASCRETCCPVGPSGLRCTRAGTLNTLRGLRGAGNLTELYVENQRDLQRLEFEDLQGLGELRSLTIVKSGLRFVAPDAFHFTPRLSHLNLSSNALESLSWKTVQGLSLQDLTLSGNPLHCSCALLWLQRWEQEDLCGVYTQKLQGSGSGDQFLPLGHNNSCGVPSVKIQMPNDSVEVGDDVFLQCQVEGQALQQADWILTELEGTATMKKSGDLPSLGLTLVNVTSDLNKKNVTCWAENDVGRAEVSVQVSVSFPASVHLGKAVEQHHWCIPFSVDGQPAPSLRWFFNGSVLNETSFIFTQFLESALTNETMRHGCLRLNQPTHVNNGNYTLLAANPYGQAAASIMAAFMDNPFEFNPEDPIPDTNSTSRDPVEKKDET

Row | Binder | Absorbance 450 nm [1] | Kd [2] | koff [2] | kon [2] | Kd [3] | koff [3] | kon [3] | Kd [4] | koff [4] | kon [4] | % Max stimulation, pTrkA [5] | EC50 (nM), pTrkA [5] | pTrkA counts per second, 0.1 pM mAb, no NGF [5] | pTrkA counts per second, 1 pM mAb, no NGF [5] | pTrkA counts per second, 10 pM mAb, no NGF [5] | pTrkA counts per second, 100 pM mAb, no NGF [5] | pTrkA counts per second, 1 nM mAb, no NGF [5] | pTrkA counts per second, 10 nM mAb, no NGF [5] | pTrkA counts per second, 100 nM mAb, no NGF [5] | pTrkA counts per second, 1 uM mAb, no NGF [5] | further results
1 | mAb A (antibody, human IgG4 S228P, kappa, F234A L235A, V domains shown, Human IgG4PAA/Kappa) VH: EVQLVESGGGLVKPGGSLRLSCAASGFTFSGVSINWVRQAPGKGLEWVSSETTSSGTIYYADSVKGRFTISRDNAKNSLYLQMNSLRAEDTAVYYCARSYYYGMDVWGQGTTVTVSS VL: DIVMTQTPLSSPVTLGQPASISCRSSQSLVHRNGNTYLSWLQQRPGQPPRLLIYKISNRFSGVPDRFSGSGAGTDFTLKISRVEAEDVGVYYCMQARQFPLTFGGGTKVEIKR | 0.2 | 2.9 nM | 0.00061 s⁻¹ | 210000 M⁻¹ s⁻¹ | 5.1 nM | 0.00069 s⁻¹ | 140000 M⁻¹ s⁻¹ | 4.1 nM | 0.00072 s⁻¹ | 180000 M⁻¹ s⁻¹ | 18% | 0.88 nM | 171000 counts per second | 174000 counts per second | 227000 counts per second | 203000 counts per second | 442000 counts per second | 640000 counts per second | 572000 counts per second | 493000 counts per second | Absorbance 450 nm [6]: 1.09; % Max Inhibition, pTrkA [7]: 82%; IC50 (nM), pTrkA [7]: 0.57 nM; pTrkA counts per second, NGF +0.1 pM mAb [7]: 1.83e+06 counts per second; pTrkA counts per second, NGF +1 pM mAb [7]: 2.09e+06 counts per second; pTrkA counts per second, NGF +10 pM mAb [7]: 2.2e+06 counts per second; pTrkA counts per second, NGF +100 pM mAb [7]: 1.69e+06 counts per second; pTrkA counts per second, NGF +1 nM mAb [7]: 1.15e+06 counts per second; pTrkA counts per second, NGF +10 nM mAb [7]: 710000 counts per second; pTrkA counts per second, NGF +100 nM mAb [7]: 544000 counts per second; pTrkA counts per second, NGF +1 uM mAb [7]: 580000 counts per second; Absorbance 450 nm [8]: 0.26; IC50 [9]: 0.34 nM
2 | mAb C (antibody, human IgG4 S228P, kappa, F234A L235A, Human IgG4PAA/Kappa) heavy: not shown light: DIVMTQTPLSSPVTLGQPASISCRSSQSLVHRQGNTYLSWLQQRPGQPPRLLIYKISNRFSGVPDRFSGSGAGTDFTLKISRVEAEDVGVYYCMQARQFPLTFGGGTKVEIKRTVAAPSVFIFPPSDEQLKSGTASVVCLLNNFYPREAKVQWKVDNALQSGNSQESVTEQDSKDSTYSLSSTLTLSKADYEKHKVYACEVTHQGLSSPVTKSFNRGEC | 0.15 | 4.7 nM | 0.0011 s⁻¹ | 220000 M⁻¹ s⁻¹ | 9 nM | 0.0012 s⁻¹ | 130000 M⁻¹ s⁻¹ | 6.6 nM | 0.0013 s⁻¹ | 200000 M⁻¹ s⁻¹ | 50% | 0.21 nM | 571000 counts per second | 613000 counts per second | 664000 counts per second | 922000 counts per second | 1.54e+06 counts per second | 1.69e+06 counts per second | 1.77e+06 counts per second | 1.63e+06 counts per second | Absorbance 450 nm [6]: 1.03; % Max Inhibition, pTrkA [7]: 65%; IC50 (nM), pTrkA [7]: 1.6 nM; pTrkA counts per second, NGF +0.1 pM mAb [7]: 3.38e+06 counts per second; pTrkA counts per second, NGF +1 pM mAb [7]: 3.05e+06 counts per second; pTrkA counts per second, NGF +10 pM mAb [7]: 3.68e+06 counts per second; pTrkA counts per second, NGF +100 pM mAb [7]: 2.95e+06 counts per second; pTrkA counts per second, NGF +1 nM mAb [7]: 2.67e+06 counts per second; pTrkA counts per second, NGF +10 nM mAb [7]: 1.53e+06 counts per second; pTrkA counts per second, NGF +100 nM mAb [7]: 1.58e+06 counts per second; pTrkA counts per second, NGF +1 uM mAb [7]: 1.3e+06 counts per second; Absorbance 450 nm [8]: 0.16; IC50 [9]: 0.28 nM
3 | mAb B (antibody, human IgG4 S228P, kappa, F234A L235A, Human IgG4PAA/Kappa) heavy: not shown light: DIVMTQTPLSSPVTLGQPASISCRSSQSLVHRAGNTYLSWLQQRPGQPPRLLIYKISNRFSGVPDRFSGSGAGTDFTLKISRVEAEDVGVYYCMQARQFPLTFGGGTKVEIKRTVAAPSVFIFPPSDEQLKSGTASVVCLLNNFYPREAKVQWKVDNALQSGNSQESVTEQDSKDSTYSLSSTLTLSKADYEKHKVYACEVTHQGLSSPVTKSFNRGEC | 0.15 | 5 nM | 0.0011 s⁻¹ | 220000 M⁻¹ s⁻¹ | 9.1 nM | 0.0012 s⁻¹ | 130000 M⁻¹ s⁻¹ | 6.8 nM | 0.0013 s⁻¹ | 190000 M⁻¹ s⁻¹ | 38% | 0.98 nM | 748000 counts per second | 844000 counts per second | 638000 counts per second | 758000 counts per second | 1.4e+06 counts per second | 2.1e+06 counts per second | 2.08e+06 counts per second | 1.86e+06 counts per second | Absorbance 450 nm [6]: 0.87; % Max Inhibition, pTrkA [7]: 42%; IC50 (nM), pTrkA [7]: 0.72 nM; pTrkA counts per second, NGF +0.1 pM mAb [7]: 4.79e+06 counts per second; pTrkA counts per second, NGF +1 pM mAb [7]: 4.86e+06 counts per second; pTrkA counts per second, NGF +10 pM mAb [7]: 4.46e+06 counts per second; pTrkA counts per second, NGF +100 pM mAb [7]: 5.16e+06 counts per second; pTrkA counts per second, NGF +1 nM mAb [7]: 3.3e+06 counts per second; pTrkA counts per second, NGF +10 nM mAb [7]: 2.87e+06 counts per second; pTrkA counts per second, NGF +100 nM mAb [7]: 2.34e+06 counts per second; pTrkA counts per second, NGF +1 uM mAb [7]: 2.99e+06 counts per second; Absorbance 450 nm [8]: 0.17; IC50 [9]: 0.27 nM
